Source: patent publication US20130031647A1 (PIERRE FABRE MEDICAMENT, published 2013)

Tests used:
[1] = biological target: constitutively active mutant (CAM) Asn^119Ser CXCR4 receptor (human) (UniProt P61073); experiment: cell-based or functional assay
[2] = biological target: T1, human CXCR4 receptor (human, UniProt P61073 1-352); experiment: cell-based or functional assay
[3] = biological target: T1, human CXCR4 receptor; experiment: competition of [^125I]SDF-1 (1 nM) binding, Mab at 100 nM, SPA, CHO-K1 membranes expressing human CXCR4
Protocol: (§1) CHO-K1 cells, stably and constitutively expressing human CXCR4 receptor were obtained upon transfection of naïve CHO-K1 cells (ATCC CCL-61) with a mammalian expression vector carrying the whole coding sequence of human CXCR4 receptor (RefSeq NM_{—}003467). Cells were propagated in complete culture medium [DMEM-Ham's F12 supplemented with 5% fetal calf serum (FCS) and 500 μg/ml of geneticin]. Radioligand binding experiments were conducted on cell membranes obtained upon mechanical scrapping of CHO/CXCR4 cells in lysis buffer [Hepes 20 mM, pH 7.4, NaCl 150 mM] followed by centrifugation (10000 g, 15 min). […] Upon centrifugation [1000 g for 10 min.] radioactive counts were measured in a scintillation counter (TopCount, Perkin Elmer).

[4] = biological target: T2, CXCR2:YFP fusion protein (UniProt P25025 1-360); experiment: BRET in transiently transfected HEK293 cells
T2 construct: whole, on cells
T2 sequence (looked up): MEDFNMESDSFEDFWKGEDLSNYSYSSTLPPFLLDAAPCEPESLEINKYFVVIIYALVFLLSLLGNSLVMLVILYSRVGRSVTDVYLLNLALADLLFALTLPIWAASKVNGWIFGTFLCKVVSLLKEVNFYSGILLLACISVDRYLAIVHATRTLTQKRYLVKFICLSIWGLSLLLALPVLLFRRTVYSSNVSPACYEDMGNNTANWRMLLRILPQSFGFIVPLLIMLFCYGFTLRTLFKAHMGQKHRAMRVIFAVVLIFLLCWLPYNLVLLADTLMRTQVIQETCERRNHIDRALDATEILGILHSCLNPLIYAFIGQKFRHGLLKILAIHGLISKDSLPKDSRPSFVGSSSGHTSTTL
Protocol: The day after, cells were distributed in poly-lysine pre-coated white 96 MW plates in complete culture medium [DMEM supplemented with 10% FBS]. Cells were first cultivated at 37° C. with CO₂ 5% in order to allow cell attachment to the plate. Cells were then starved with 200 μl DMEM/well overnight. Immediately prior to the BRET experiment, DMEM was removed and cells were quickly washed with PBS. […] After incubation for further 10 minutes at 37° C., light-emission acquisition at 485 nm and 530 nm was initiated using the Mithras LB940 multilabel reader (Berthold) (1 s/wavelength/well repeated 15 times at room temperature).
Calculation of BRET ratio was performed as previously described (Angers et al., 2000): [(emission_{530 nm})−(emission_{485 nm})×Cf]/(emission_{485 nm}), where Cf=(emission_{530 nm}) (emission_{485 nm}) for cells expressing the Rluc fusion protein alone under the same experimental conditions. […] For sake of readability, results are expressed in milliBRET units (mBU); mBU corresponds to the BRET ratio multiplied by 1000.

[5] = biological target: T1, human CXCR4 receptor; experiment: competition of [^125I]SDF-1 (1 nM) binding, SPA, CHO-K1 membranes expressing human CXCR4
Protocol: as §1

[6] = biological target: T1, human CXCR4 receptor; experiment: dose-dependent inhibition of [^125I]SDF-1 binding, SPA, CHO-K1 membranes expressing human CXCR4
Protocol: as §1

[7] = biological target: T1, human CXCR4 receptor; experiment: flow cytometry competition on CXCR4 transfected NIH3T3 cells; competitor: biotinylated murine 515H7
Description: In a first series of experiments, we constructed and analysed the anti-CXCR4 binding activities of the three first humanized variants. […] Therefore, VH1 was combined with the three different variants of VL (FIG. 23D-F).

Molecule	IC50 in [^35S]GTPγS binding, NIH3T3/CXCR4 cells [2]	inhibition of SDF-1-induced β-arrestin recruitment (BRET) [2]	% inhibition of [^125I]SDF-1 [5]	% of inhibition of [^35S]GTPγS binding stimulated by SDF-1 (100 nM) [2]	percentage of inhibition of SDF-1-induced BRET increase, CXCR4 homo-dimers [2]	other results
T140 (peptide)						inhibition of SDF-1-stimulated [^35S]GTPγS binding [1]: -159%; inhibition of basal [^35S]GTPγS binding [1]: -17%
anti-CXCR4 chimeric Mab c515H7 (antibody, human IgG1, kappa, V domains shown, also called chimeric 515H7; chimeric antibody) VH: EVNLVESGGGLVQPGGSLRLSCATSGFTFTDNYMSWVRQPPGKALEWLGFIRNKANGYTTDYSASVRGRFTISRDNSQSILYLQMNALRAEDSATYYCARDVGSNYFDYWGQGTTLTVSS VL: DIVMSQSPSSLAVSAGEKVTMSCKSSQSLFNSRTRKNYLAWYQQKPGQSPKLLIYWASARDSGVPARFTGSGSETYFTLTISRVQAEDLAVYYCMQSFNLRTFGQGTKVEIKR	1.5 nM	~93%				% inhibition of [^125I]SDF-1 [3]: 55%; IC50 in [^35S]GTPγS binding, Hela cells [2]: 0.6 nM; decrease in SDF-1-induced U937 cells migration [2]: > 80%
CXCR4/Rluc fusion protein (receptor, UniProt P61073 1-352, looked up, whole, on cells; Transiently expressed in HEK293 cells for BRET; also called CXCR4 tagged with luciferase; not shown: Renilla reniformis luciferase (Rluc)) MEGISIYTSDNYTEEMGSGDYDSMKEPCFREENANFNKIFLPTIYSIIFLTGIVGNGLVILVMGYQKKLRSMTDKYRLHLSVADLLFVITLPFWAVDAVANWYFGNFLCKAVHVIYTVNLYSSVLILAFISLDRYLAIVHATNSQRPRKLLAEKVVYVGVWIPALLLTIPDFIFANVSEADDRYICDRFYPNDLWVVVFQFQHIMVGLILPGIVILSCYCIIISKLSHSKGHQKRKALKTTVILILAFFACWLPYYIGISIDSFILLEIIKQGCEFENTVHKWISITEALAFFHCCLNPILYAFLGAKFKTSAQHALTSVSRGSSLKILSKGKRGGHSSVSTESESSSFHSS						binding result [4]: binds
humanized antibody Hz515H7 VH1 D76N VL2.2 (antibody, human IgG1, kappa, V domains shown, human IgG1/kappa format; also called hz515H7VL2.2) VH: EVQLVESGGGLVQPGRSLRLSCTASGFTFTDNYMSWVRQAPGKGLEWVGFIRNKANGYTTEYAASVKGRFTISRDNSKSIAYLQMNSLKTEDTAVYYCARDVGSNYFDYWGQGTLVTVSS VL: DIVMTQSPDSLAVSLGERATMSCKSSQSLFNSRTRKNYLAWYQQKPGQPPKLLIYWASARDSGVPDRFTGSGSETYFTLTISRVQAEDVAVYYCMQSFNLRTFGQGTKVEIKR	5.19 nM	~82%	61%	66%	~33%	IC50 [6]: 5.91 nM
humanized antibody Hz515H7 VH1/c515H7 VL (antibody, human IgG1, V domains shown, also called VH1 combined with the chimeric VL (cVL); VH1 combined with the murine VL) VH: EVQLVESGGGLVQPGRSLRLSCTASGFTFTDNYMSWVRQAPGKGLEWVGFIRNKANGYTTEYAASVKGRFTISRDDSKSIAYLQMNSLKTEDTAVYYCARDVGSNYFDYWGQGTLVTVSS VL: DIVMSQSPSSLAVSAGEKVTMSCKSSQSLFNSRTRKNYLAWYQQKPGQSPKLLIYWASARDSGVPARFTGSGSETYFTLTISRVQAEDLAVYYCMQSFNLRTFGQGTKVEIKR						binding result [7]: binds
hz515H7 VH1 VL2 (antibody, human IgG1, kappa, V domains shown, also called VH1 combined with variant 2 of VL) VH: EVQLVESGGGLVQPGRSLRLSCTASGFTFTDNYMSWVRQAPGKGLEWVGFIRNKANGYTTEYAASVKGRFTISRDDSKSIAYLQMNSLKTEDTAVYYCARDVGSNYFDYWGQGTLVTVSS VL: DIVMTQSPSSLAVSLGERATMSCKSSQSLFNSRTRKNYLAWYQQKPGQSPKLLIYWASARDSGVPARFTGSGSETYFTLTISRVQAEDLAVYYCMQSFNLRTFGQGTKVEIKR						binding result [7]: binds
humanized antibody Hz515H7 VH1 VL1 (antibody, human IgG1, kappa, V domains shown, human IgG1/kappa format; also called humanized variant 515H7 VH variant 1 VL variant 1) VH: EVQLVESGGGLVQPGRSLRLSCTASGFTFTDNYMSWVRQAPGKGLEWVGFIRNKANGYTTEYAASVKGRFTISRDDSKSIAYLQMNSLKTEDTAVYYCARDVGSNYFDYWGQGTLVTVSS VL: DIVMTQSPDSLAVSLGERATINCKSSQSLFNSRTRKNYLAWYQQKPGQPPKLLIYWASTRESGVPDRFSGSGSGTDFTLTISSLQAEDVAVYYCMQSFNLRTFGQGTKVEIKR						binding result [7]: binds

Continued, in another order:

IC50 in [^35S]GTPγS binding, NIH3T3/CXCR4 cells [2]	inhibition of SDF-1-induced β-arrestin recruitment (BRET) [2]	% inhibition of [^125I]SDF-1 [5]	% of inhibition of [^35S]GTPγS binding stimulated by SDF-1 (100 nM) [2]	percentage of inhibition of SDF-1-induced BRET increase, CXCR4 homo-dimers [2]	Molecule	other results
1.9 nM	~95%				murine monoclonal antibody 515H7 (antibody, V domains shown) VH: EVNLVESGGGLVQPGGSLRLSCATSGFTFTDNYMSWVRQPPGKALEWLGFIRNKANGYTTDYSASVRGRFTISRDNSQSILYLQMNALRAEDSATYYCARDVGSNYFDYWGQGTTLTVSS VL: DIVMSQSPSSLAVSAGEKVTMSCKSSQSLFNSRTRKNYLAWYQQKPGQSPKLLIYWASARDSGVPARFTGSGSETYFTLTISRVQAEDLAVYYCMQSFNLRTFGQGTKVEIK	IC50 in [^35S]GTPγS binding, Hela cells [2]: 0.2 nM; decrease in SDF-1-induced U937 cells migration [2]: > 80%
8.5 nM	~71%	49%	58%	~21%	humanized antibody Hz515H7 VH1 D76N VL2.3 (antibody, human IgG1, kappa, V domains shown, human IgG1/kappa format; also called hz515H7VL2.3) VH: EVQLVESGGGLVQPGRSLRLSCTASGFTFTDNYMSWVRQAPGKGLEWVGFIRNKANGYTTEYAASVKGRFTISRDNSKSIAYLQMNSLKTEDTAVYYCARDVGSNYFDYWGQGTLVTVSS VL: DIVMTQSPDSLAVSLGERATMSCKSSQSLFNSRTRKNYLAWYQQKPGQPPKLLIYWASARDSGVPDRFTGSGSETYFTLTISSLQAEDLAVYYCMQSFNLRTFGQGTKVEIKR	
4.05 nM	~81%	68%	69%	~65%	humanized antibody Hz515H7 VH1 D76N VL2.1 (antibody, human IgG1, kappa, V domains shown, human IgG1/kappa format; also called hz515H7VL2.1) VH: EVQLVESGGGLVQPGRSLRLSCTASGFTFTDNYMSWVRQAPGKGLEWVGFIRNKANGYTTEYAASVKGRFTISRDNSKSIAYLQMNSLKTEDTAVYYCARDVGSNYFDYWGQGTLVTVSS VL: DIVMTQSPDSLAVSLGERATMSCKSSQSLFNSRTRKNYLAWYQQKPGQPPKLLIYWASARDSGVPDRFSGSGSETYFTLTISRVQAEDLAVYYCMQSFNLRTFGQGTKVEIKR	IC50 [6]: 6.69 nM
3.86 nM	~94%	77%	86%	~88%	humanized antibody Hz515H7 VH1 D76N VL2 (antibody, human IgG1, kappa, V domains shown, human IgG1/kappa format; Biotinylated in the IHC study; also called hz515H7VL2; hz515H7 VH D76N VL2) VH: EVQLVESGGGLVQPGRSLRLSCTASGFTFTDNYMSWVRQAPGKGLEWVGFIRNKANGYTTEYAASVKGRFTISRDNSKSIAYLQMNSLKTEDTAVYYCARDVGSNYFDYWGQGTLVTVSS VL: DIVMTQSPSSLAVSLGERATMSCKSSQSLFNSRTRKNYLAWYQQKPGQSPKLLIYWASARDSGVPARFTGSGSETYFTLTISRVQAEDLAVYYCMQSFNLRTFGQGTKVEIKR	IC50 [6]: 1.44 nM; IC50, SDF-1 induced U937 cell migration [2]: 4.53 ng/mL
